Where a chain is given by its changes, count along the chain named. Numbers in names are those of the source.
B1: L76P9 E4: acrylodan-labeled mutant FABP probe: Y14L, M18Y, I23T, K27L, L30C, G31I, L72G, A73I, D74A, L78V, W82P, G91S, F93M, A104F, R106L, Y117L, Q115A (protein, UniProt P02693 2-132, looked up, variant Y14L M18Y I23T K27L L30C G31I L72G A73I D74A L78V W82P G91S F93M A104F R106L Y117L Q115A)
Fatty acid-binding protein, …: AFDGTWKVDRNENLEKFYEKMGTNVVLRKCIAHDNLKLTITQEGNKFTVKESSNFRNIDVVFELGVDFAYSGIAGTEVTGTPTMEGNKLVSKMKRVDNGKELIFVLEISGNELIATLTYEGVEAKRIFKKE
modifications: acrylodan label
notes: acrylodan-labeled mutant FABP probe: Y14L, M18Y, I23T, K27L, L30C, G31I, L72G, A73I, D74A, L78V, W82P, G91S, F93M, A104F, R106L, Y117L, Q115A
B2: L33P3 F9: acrylodan-labeled mutant FABP probe: M18L, I23L, G31N, L72W, A73T, D74A, R106A, Q115E, Y117V (protein, UniProt P02693 2-132, looked up, variant M18L I23L G31N L72W A73T D74A R106A Q115E Y117V)
Fatty acid-binding protein, …: AFDGTWKVDRNENYEKFLEKMGLNVVKRKLNAHDNLKLTITQEGNKFTVKESSNFRNIDVVFELGVDFAYSWTAGTELTGTWTMEGNKLVGKFKRVDNGKELIAVAEISGNELIETVTYEGVEAKRIFKKE
modifications: acrylodan label
notes: acrylodan-labeled mutant FABP probe: M18L, I23L, G31N, L72W, A73T, D74A, R106A, Q115E, Y117V
B3: L37P1 C3: acrylodan-labeled mutant FABP probe: Y14W, M18L, M21I, I23L, G31N, L38V, L72W, A73T, D74A, R106A, Q115E, Y117V (protein, UniProt P02693 2-132, looked up, variant Y14W M18L M21I I23L G31N L38V L72W A73T D74A R106A Q115E Y117V)
Fatty acid-binding protein, …: B2 Fatty acid-binding protein, … with Y14W, M21I, L38V
modifications: acrylodan label
notes: acrylodan-labeled mutant FABP probe: Y14W, M18L, M21I, I23L, G31N, L38V, L72W, A73T, D74A, R106A, Q115E, Y117V
B4: L36P15 B7-1: acrylodan-labeled mutant FABP probe: M18L, I23V, G31N, F55R, L72W, A73T, D74A, R106A, Q115E, Y117V (protein, UniProt P02693 2-132, looked up, variant M18L I23V G31N F55R L72W A73T D74A R106A Q115E Y117V)
Fatty acid-binding protein, …: B2 Fatty acid-binding protein, … with L23V, F55R
modifications: acrylodan label
notes: acrylodan-labeled mutant FABP probe: M18L, I23V, G31N, F55R, L72W, A73T, D74A, R106A, Q115E, Y117V
B5: L50BP9 D5: acrylodan-labeled mutant FABP probe: M18L, M21F, I23L, K27C, G31N, L72S, A73T, D74A, T76I, Y117N (protein, UniProt P02693 2-132, looked up, variant M18L M21F I23L K27C G31N L72S A73T D74A T76I Y117N)
Fatty acid-binding protein, …: B2 Fatty acid-binding protein, … with M21F, K27C, W72S, T76I, A106R, E115Q, V117N
modifications: acrylodan label
notes: acrylodan-labeled mutant FABP probe: M18L, M21F, I23L, K27C, G31N, L72S, A73T, D74A, T76I, Y117N
B6: L44P1 C10: acrylodan-labeled mutant FABP probe: Y14L, M18L, I23L, G31N, L72G, A73T, D74A, R106W, Q115W, Y117L (protein, UniProt P02693 2-132, looked up, variant Y14L M18L I23L G31N L72G A73T D74A R106W Q115W Y117L)
Fatty acid-binding protein, …: B2 Fatty acid-binding protein, … with Y14L, W72G, A106W, E115W, V117L
modifications: acrylodan label
notes: acrylodan-labeled mutant FABP probe: Y14L, M18L, I23L, G31N, L72G, A73T, D74A, R106W, Q115W, Y117L
B7: L50BP4 E2: acrylodan-labeled mutant FABP probe: M18L, M21F, I23F, K27C, G31N, L72T, A73T, D74A, T76F (protein, UniProt P02693 2-132, looked up, variant M18L M21F I23F K27C G31N L72T A73T D74A T76F)
Fatty acid-binding protein, …: B2 Fatty acid-binding protein, … with M21F, L23F, K27C, W72T, T76F, A106R, E115Q, V117Y
modifications: acrylodan label
notes: acrylodan-labeled mutant FABP probe: M18L, M21F, I23F, K27C, G31N, L72T, A73T, D74A, T76F

Test: Probe response profile / specificity for different FFAu at 1 nM
Type: binding
Conditions: FFAu giving the largest response to 1 nM of each FFAu; several listed in order of degree of specificity
From the text: The abbreviations are: arachidonate (AA), docosahexaenoate (DHA), eicosapentaenoate (EPA), laurate (LAU), linoleate (LA), linolenate (LNA), myristate (MA), oleate (OA), palmitate (PA), palmitoleate (POA), stearate (SA), and vaccenate (VA).
Examples of probes used, generally in groups of 10 or more, to determine FFAu profiles in biological samples such as blood plasma or serum from animals and humans or media from microorganisms are shown in Table 2. In the sequences presented in Table 2 and the sequence listing, amino acids are numbered from the first residue of the mature protein. The initiator methionine residue of the wild-type protein is removed by aminopeptidase activity, leaving an alanine as residue 1. Thus, counting backwards and skipping 0, the initiator methionine is at residue position −1. Specificity indicates the FFAu that gives the largest response to 1 nM of each FFAu when one FFAu dominates the profile and more than one when there is a more even distribution of specificity. Where more than one is indicated they are listed in order of degree of specificity. The abbreviations are: arachidonate (AA), docosahexaenoate (DHA), eicosapentaenoate (EPA), laurate (LAU), linoleate (LA), linolenate (LNA), myristate (MA), oleate (OA), palmitate (PA), palmitoleate (POA), stearate (SA), and vacsinate (VA). The sequences indicate mutations relative to SEQ ID NO: 1. This sequence is a mutated rat intestinal fatty acid binding protein with a Glu 131 to Asp substitution and includes a COOH-terminal affininity tag comprising […], Gly 133 and 6 histidines.
The response profile is the fluorescence change as evaluated as (R−Ro)/Ro (ΔR/Ro) for each FFAu added as a complex of the FFA and albumin so that the FFAu concentration is clamped or buffered at 1 nM for every FFAu for which a calibration has been performed. The calculation is performed simply by rearranging equation 2 to solve for ΔR/Ro. […] However all the probes have different profiles and therefore complementary specificities for different FFAu. Abbreviations are as in Table 2.

Molecule | Specificity
B1 | OA/VA/SA/LA
B2 | DHA/AA
B3 | AA/DHA/EPA
B4 | HA/AA/EPA
B5 | PA/POA/MA
B6 | PA/OA/SA
B7 | PA/MA
